Source: article PMC6980381 (Science (New York, N.Y.), 2019)

Biological target: T1, Npl4 (untagged, of the Ufd1/Npl4 cofactor complex) (S. cerevisiae, UniProt P33755 1-580)
T1 sequence: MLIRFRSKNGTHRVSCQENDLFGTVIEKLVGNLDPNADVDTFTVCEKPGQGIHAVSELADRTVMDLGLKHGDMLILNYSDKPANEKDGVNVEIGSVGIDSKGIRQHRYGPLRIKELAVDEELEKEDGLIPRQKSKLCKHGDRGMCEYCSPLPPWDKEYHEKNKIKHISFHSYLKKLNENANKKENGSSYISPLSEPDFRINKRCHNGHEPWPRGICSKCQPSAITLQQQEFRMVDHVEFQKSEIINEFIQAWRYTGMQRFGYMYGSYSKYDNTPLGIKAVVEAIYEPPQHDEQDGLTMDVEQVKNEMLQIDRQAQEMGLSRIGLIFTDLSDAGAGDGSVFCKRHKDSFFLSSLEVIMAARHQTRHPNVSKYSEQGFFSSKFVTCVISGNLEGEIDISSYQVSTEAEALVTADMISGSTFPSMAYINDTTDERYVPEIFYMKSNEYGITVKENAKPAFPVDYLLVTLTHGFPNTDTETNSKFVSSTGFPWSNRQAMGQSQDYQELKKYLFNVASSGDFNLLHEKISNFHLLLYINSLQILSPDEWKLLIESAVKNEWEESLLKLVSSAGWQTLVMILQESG
Assay: cryo-EM structure

binding result: binds
B1: Ufd1 (untagged, of the Ufd1/Npl4 cofactor complex) (natural protein, S. cerevisiae, UniProt P53044 1-361, looked up)
chain: MFSGFSSFGGGNGFVNMPQTFEEFFRCYPIAMMNDRIRKDDANFGGKIFLPPSALSKLSMLNIRYPMLFKLTANETGRVTHGGVLEFIAEEGRVYLPQWMMETLGIQPGSLLQISSTDVPLGQFVKLEPQSVDFLDISDPKAVLENVLRNFSTLTVDDVIEISYNGKTFKIKILEVKPESSSKSICVIETDLVTDFAPPVGYVEPDYKALKAQQDKEKKNSFGKGQVLDPSVLGQGSMSTRIDYAGIANSSRNKLSKFVGQGQNISGKAPKAEPKQDIKDMKITFDGEPAKLDLPEGQLFFGFPMVLPKEDEESAAGSKSSEQNFQGQGISLRKSNKRKTKSDHDSSKSKAPKSPEVIEID
